Assay results taken from the supplement of paper PMC10126150.
± gives the standard deviation of the averaged measurements.

System: ATP
Assay: switch fluorescence ratio, 500 uM ATP over buffer (Cy3 cluster intensity, sum of 5 cycles each) (fold (ratio)); higher = stronger signal-on switching upon ATP binding; sequences stand for … in TCGTCGGCAGCGTCAGATGTGTATAAGAGACAGTTTTTTTTTTTTTTTTTTTTTTTTT…TC
Conditions: aptamer strand: ATP DNA aptamer (quencher-CACCTGGGGGAGTATTGCGGAGGAAGG + anchor), 100 nM annealed; ATP concentration: 500 uM
Outline: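 After annealing to 100 nM quencher-labelled ATP aptamer, Cy3-labelled switching-strand clusters on a modified Illumina MiSeq flow-cell were imaged in selection buffer. A second image followed after 15 min with 500 uM ATP at 22 °C, and five such buffer/ATP cycles were done, each separated by NaOH stripping and re-annealing. The fluorescence ratio, averaged per switch-domain sequence, is summed target-cycle over summed buffer-cycle Cy3 intensity per cluster, with clusters outside 100-1000 RFU excluded.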
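Also: ATP exposure 15 min at 22 °C before imaging.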

With AATTGGAATA as the sequence, how does the switch fluorescence ratio read?
The switch fluorescence ratio was 0.956 ± 0.038.

How did the switch fluorescence ratio turn out when AATTGGGACA was run?
The switch fluorescence ratio was 1 ± 0.01.

AATTGGGGTT was tested. Which switch fluorescence ratio did it give?
Its switch fluorescence ratio is 1.012 ± 0.0052.

How did the switch fluorescence ratio turn out when AATTGGGTTG was run?
The switch fluorescence ratio was 0.957 ± 0.026.

Which switch fluorescence ratio does the source give for AATTGGTGGT here?
Its switch fluorescence ratio is 0.965 ± 0.032.

How did the switch fluorescence ratio turn out when AATTGTATGG was run?
Its switch fluorescence ratio is 1.04 ± 0.044.

AATTGTATGT was tested. Which switch fluorescence ratio did it give?
Its switch fluorescence ratio is 0.989 ± 0.029.

AATTGTGAAA was tested. Which switch fluorescence ratio did it give?
The switch fluorescence ratio was 1.01 ± 0.013.

How did the switch fluorescence ratio turn out when AATTGTGAGG was run?
The switch fluorescence ratio was 1.01 ± 0.023.

With AATTGTGCCG as the sequence, how does the switch fluorescence ratio read?
Its switch fluorescence ratio is 1.1 ± 0.17.

How did the switch fluorescence ratio turn out when AATTGTGTTT was run?
Its switch fluorescence ratio is 1.01 ± 0.021.

With AATTGTTGCT as the sequence, how does the switch fluorescence ratio read?
The switch fluorescence ratio was 0.99301 ± 0.00023.

For AATTTAAAG, which switch fluorescence ratio is on record?
Its switch fluorescence ratio is 0.992 ± 0.037.

For AATTTAAAGT, which switch fluorescence ratio is on record?
The switch fluorescence ratio was 0.951 ± 0.052.

With AATTTAATTT as the sequence, how does the switch fluorescence ratio read?
Its switch fluorescence ratio is 1.015 ± 0.006.

How did the switch fluorescence ratio turn out when AATTTAGACG was run?
The switch fluorescence ratio was 1.016 ± 0.0083.

AATTTAGTAG was tested. Which switch fluorescence ratio did it give?
Its switch fluorescence ratio is 1 ± 0.013.

For AATTTATAGC, which switch fluorescence ratio is on record?
The switch fluorescence ratio was 0.977 ± 0.034.

Which switch fluorescence ratio does the source give for AATTTATTGG here?
The switch fluorescence ratio was 1.01 ± 0.013.

For AATTTCGTTG, which switch fluorescence ratio is on record?
The switch fluorescence ratio was 0.999 ± 0.029.

How did the switch fluorescence ratio turn out when AATTTCTCGT was run?
Its switch fluorescence ratio is 0.996 ± 0.016.

AATTTGATAG was tested. Which switch fluorescence ratio did it give?
The switch fluorescence ratio was 0.988 ± 0.018.

With AATTTGATGC as the sequence, how does the switch fluorescence ratio read?
Its switch fluorescence ratio is 0.985 ± 0.018.

With AATTTGCAGT as the sequence, how does the switch fluorescence ratio read?
The switch fluorescence ratio was 1.004 ± 0.0043.

How did the switch fluorescence ratio turn out when AATTTGCGGT was run?
The switch fluorescence ratio was 0.988 ± 0.022.

For AATTTGCTAA, which switch fluorescence ratio is on record?
Its switch fluorescence ratio is 0.981 ± 0.013.

For AATTTGGGAA, which switch fluorescence ratio is on record?
Its switch fluorescence ratio is 0.999 ± 0.017.

For AATTTGGGGG, which switch fluorescence ratio is on record?
The switch fluorescence ratio was 1.02 ± 0.039.

How did the switch fluorescence ratio turn out when AATTTGGGGT was run?
The switch fluorescence ratio was 0.995 ± 0.035.

With AATTTGGTG as the sequence, how does the switch fluorescence ratio read?
The switch fluorescence ratio was 1.026 ± 0.0011.

AATTTGTATG was tested. Which switch fluorescence ratio did it give?
The switch fluorescence ratio was 0.991 ± 0.028.

For AATTTGTTTG, which switch fluorescence ratio is on record?
Its switch fluorescence ratio is 1 ± 0.013.

For AATTTTAAGC, which switch fluorescence ratio is on record?
The switch fluorescence ratio was 0.967 ± 0.041.

How did the switch fluorescence ratio turn out when AATTTTAATT was run?
Its switch fluorescence ratio is 1 ± 0.027.

How did the switch fluorescence ratio turn out when AATTTTAGAA was run?
Its switch fluorescence ratio is 1 ± 0.053.

Which switch fluorescence ratio does the source give for AATTTTAGTG here?
Its switch fluorescence ratio is 0.986 ± 0.02.

Which switch fluorescence ratio does the source give for AATTTTGGAG here?
The switch fluorescence ratio was 0.996 ± 0.02.

How did the switch fluorescence ratio turn out when AATTTTGGTA was run?
The switch fluorescence ratio was 0.994 ± 0.016.

For AATTTTTATT, which switch fluorescence ratio is on record?
The switch fluorescence ratio was 1.039 ± 0.0073.

With AATTTTTCTG as the sequence, how does the switch fluorescence ratio read?
The switch fluorescence ratio was 0.9869 ± 0.008.

For AATTTTTTT, which switch fluorescence ratio is on record?
Its switch fluorescence ratio is 0.992 ± 0.01.

For ACAAAAGACT, which switch fluorescence ratio is on record?
The switch fluorescence ratio was 1.19 ± 0.25.

With ACAAAATTTT as the sequence, how does the switch fluorescence ratio read?
The switch fluorescence ratio was 1.03 ± 0.067.

Which switch fluorescence ratio does the source give for ACAAACGGGT here?
Its switch fluorescence ratio is 1.44 ± 0.073.

For ACAAACGTTC, which switch fluorescence ratio is on record?
Its switch fluorescence ratio is 1.34 ± 0.13.

ACAAAGTGTG was tested. Which switch fluorescence ratio did it give?
The switch fluorescence ratio was 1.03 ± 0.035.

With ACAAATTGGG as the sequence, how does the switch fluorescence ratio read?
Its switch fluorescence ratio is 1.03 ± 0.092.

For ACAACGGCCG, which switch fluorescence ratio is on record?
Its switch fluorescence ratio is 1.05 ± 0.012.

With ACAACGGGGG as the sequence, how does the switch fluorescence ratio read?
The switch fluorescence ratio was 1.05 ± 0.025.

How did the switch fluorescence ratio turn out when ACAAGAAAGG was run?
The switch fluorescence ratio was 1.01 ± 0.035.

For ACAAGATTTT, which switch fluorescence ratio is on record?
The switch fluorescence ratio was 0.9788 ± 0.0046.

For ACAAGCTTGT, which switch fluorescence ratio is on record?
The switch fluorescence ratio was 0.975 ± 0.063.

For ACAAGGAGGC, which switch fluorescence ratio is on record?
The switch fluorescence ratio was 0.983 ± 0.014.

For ACAAGGGAGC, which switch fluorescence ratio is on record?
Its switch fluorescence ratio is 0.954 ± 0.018.

Which switch fluorescence ratio does the source give for ACAAGGGATG here?
The switch fluorescence ratio was 0.972 ± 0.041.

For ACAAGGGGCG, which switch fluorescence ratio is on record?
Its switch fluorescence ratio is 1.05 ± 0.079.

ACAAGTGCGG was tested. Which switch fluorescence ratio did it give?
The switch fluorescence ratio was 1.05 ± 0.024.

For ACAATGAAGA, which switch fluorescence ratio is on record?
The switch fluorescence ratio was 1.01 ± 0.039.

With ACAATGGATG as the sequence, how does the switch fluorescence ratio read?
Its switch fluorescence ratio is 0.994 ± 0.041.

With ACAATGGGTA as the sequence, how does the switch fluorescence ratio read?
The switch fluorescence ratio was 1.03 ± 0.024.

Which switch fluorescence ratio does the source give for ACAATTAAGC here?
The switch fluorescence ratio was 1.04 ± 0.028.

Which switch fluorescence ratio does the source give for ACAATTGCGT here?
Its switch fluorescence ratio is 1.05 ± 0.024.

For ACAATTGGTC, which switch fluorescence ratio is on record?
The switch fluorescence ratio was 1.02 ± 0.034.

ACACACGACG was tested. Which switch fluorescence ratio did it give?
Its switch fluorescence ratio is 1.29 ± 0.013.

Which switch fluorescence ratio does the source give for ACACCAGGGG here?
Its switch fluorescence ratio is 4.18 ± 0.57.

Which switch fluorescence ratio does the source give for ACACCCGCGC here?
Its switch fluorescence ratio is 1.45 ± 0.064.

ACACCTCATA was tested. Which switch fluorescence ratio did it give?
Its switch fluorescence ratio is 1.1 ± 0.039.

For ACACGATTGG, which switch fluorescence ratio is on record?
The switch fluorescence ratio was 0.991 ± 0.014.

With ACACGCAAAA as the sequence, how does the switch fluorescence ratio read?
The switch fluorescence ratio was 1.571 ± 0.0081.

With ACACGGGCCT as the sequence, how does the switch fluorescence ratio read?
The switch fluorescence ratio was 1.03 ± 0.062.

For ACACGGGGGA, which switch fluorescence ratio is on record?
Its switch fluorescence ratio is 1.01 ± 0.024.

How did the switch fluorescence ratio turn out when ACACGGTCTA was run?
Its switch fluorescence ratio is 1.01 ± 0.04.

For ACACGTCTGG, which switch fluorescence ratio is on record?
The switch fluorescence ratio was 1.01 ± 0.029.

Which switch fluorescence ratio does the source give for ACACTAGGGC here?
Its switch fluorescence ratio is 1.04 ± 0.02.

How did the switch fluorescence ratio turn out when ACACTAGTGT was run?
Its switch fluorescence ratio is 0.985 ± 0.032.

With ACACTATAAT as the sequence, how does the switch fluorescence ratio read?
The switch fluorescence ratio was 1.09 ± 0.014.

With ACACTATTAT as the sequence, how does the switch fluorescence ratio read?
The switch fluorescence ratio was 1.07 ± 0.033.

ACACTGCTCG was tested. Which switch fluorescence ratio did it give?
Its switch fluorescence ratio is 1.05 ± 0.011.

With ACACTTTCG as the sequence, how does the switch fluorescence ratio read?
The switch fluorescence ratio was 1.018 ± 0.0011.

For ACAGAATAGG, which switch fluorescence ratio is on record?
The switch fluorescence ratio was 1.018 ± 0.0027.

With ACAGACAGCG as the sequence, how does the switch fluorescence ratio read?
The switch fluorescence ratio was 1.06 ± 0.022.

With ACAGACTATA as the sequence, how does the switch fluorescence ratio read?
Its switch fluorescence ratio is 1.094 ± 0.0097.

ACAGACTTGT was tested. Which switch fluorescence ratio did it give?
Its switch fluorescence ratio is 1.01 ± 0.037.

ACAGAGGAGC was tested. Which switch fluorescence ratio did it give?
The switch fluorescence ratio was 1.062 ± 0.006.

ACAGAGGGAT was tested. Which switch fluorescence ratio did it give?
Its switch fluorescence ratio is 1.02 ± 0.018.

How did the switch fluorescence ratio turn out when ACAGCAGCGG was run?
The switch fluorescence ratio was 1.05 ± 0.021.

ACAGCCACGG was tested. Which switch fluorescence ratio did it give?
The switch fluorescence ratio was 1.18 ± 0.038.

Which switch fluorescence ratio does the source give for ACAGCTGGGG here?
Its switch fluorescence ratio is 1.0159 ± 0.00055.

With ACAGGAAGAT as the sequence, how does the switch fluorescence ratio read?
The switch fluorescence ratio was 1.03 ± 0.035.

Which switch fluorescence ratio does the source give for ACAGGAGCTT here?
The switch fluorescence ratio was 1.05 ± 0.04.

How did the switch fluorescence ratio turn out when ACAGGCGCTT was run?
Its switch fluorescence ratio is 1.01 ± 0.013.

Which switch fluorescence ratio does the source give for ACAGGCGGCT here?
The switch fluorescence ratio was 1.1 ± 0.061.

How did the switch fluorescence ratio turn out when ACAGGGAGTT was run?
The switch fluorescence ratio was 0.9911 ± 0.0078.

For ACAGGGGGGC, which switch fluorescence ratio is on record?
The switch fluorescence ratio was 1.06 ± 0.03.

Which switch fluorescence ratio does the source give for ACAGGGTGTC here?
The switch fluorescence ratio was 1.05 ± 0.031.

ACAGGTGGAA was tested. Which switch fluorescence ratio did it give?
The switch fluorescence ratio was 1.235 ± 0.01.

With ACAGGTTGCG as the sequence, how does the switch fluorescence ratio read?
Its switch fluorescence ratio is 0.9971 ± 0.0082.

How did the switch fluorescence ratio turn out when ACAGTAATGG was run?
The switch fluorescence ratio was 1.05 ± 0.041.

With ACAGTACACA as the sequence, how does the switch fluorescence ratio read?
Its switch fluorescence ratio is 1.3 ± 0.061.

For ACAGTATGGT, which switch fluorescence ratio is on record?
Its switch fluorescence ratio is 1.02 ± 0.029.
